# Results published in publication PMC4317571.
# How the values were obtained:
# bromodomain (BD) of p300 = assay: NMR titration
# [1] = molecular target: tandem Tudor domain (TTD) of p53-binding protein 1 (53BP1), wild type (UniProt Q12888); assay: other fluorescence titration + NMR titration
# [2] = molecular target: tandem Tudor domain (TTD) of p53-binding protein 1 (53BP1), wild type (UniProt Q12888); assay: other fluorescence titration
# [3] = molecular target: p53 K382ac peptide (Homo sapiens) (UniProt P04637); details: cited from earlier work
Kd (bromodomain (BD) of p300),Kd [1],Kd [2],Substance,Kd [3]
241 µM,> 5000 µM,–,p53K381ac peptide (p53 acetylated at K381) (from UniProt P04637 377-386),–
282 µM,–,0.76 µM,p53K381acK382me2 peptide (p53 acetylated at K381 and dimethylated at K382) (from UniProt P04637 377-386),–
–,–,–,CBP bromodomain (from UniProt Q92793),187 µM
